Laboratory results from US20240247080A1, “GLP1/GIP/NPY2 RECEPTOR TRIPLE AGONISTS” (Boehringer Ingelheim International GmbH, priority 2022, published 2024).
Starred links: 1 amine or outer side, 2 acyl side, 3 side chain; linkers in the order of their positions; H or OH if unused. Non-standard residues stand in square brackets, D forms with d. Groups on a side chain read outwards from the residue. No end group written: not given here. *: point of attachment. C20 diacid = O=C(O)CCCCCCCCCCCCCCCCCCC(=O)*; γGlu = O=C(O)[C@H](CCC(=O)[*:2])N[*:1]; εLys = N[C@@H](CCCCN[*:1])C(=O)[*:2]; AEEA = NCCOCCOCC(=O)O; Aib = CC(C)(N)C(=O)O

T1: human GIP receptor (human, UniProt P48546 22-466)
T1 sequence (looked up): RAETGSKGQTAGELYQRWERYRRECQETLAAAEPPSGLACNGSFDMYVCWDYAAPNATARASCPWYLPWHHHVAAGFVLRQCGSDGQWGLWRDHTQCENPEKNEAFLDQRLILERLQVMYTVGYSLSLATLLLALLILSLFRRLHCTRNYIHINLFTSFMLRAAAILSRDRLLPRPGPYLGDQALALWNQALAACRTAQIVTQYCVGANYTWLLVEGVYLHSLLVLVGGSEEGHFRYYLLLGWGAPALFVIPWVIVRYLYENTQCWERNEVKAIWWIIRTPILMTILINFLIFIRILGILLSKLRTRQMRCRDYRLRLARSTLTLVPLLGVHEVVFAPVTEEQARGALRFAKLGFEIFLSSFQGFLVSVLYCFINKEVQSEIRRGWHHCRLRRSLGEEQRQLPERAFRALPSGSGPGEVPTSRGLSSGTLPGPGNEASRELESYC

T2: human neuropeptide Y2 receptor (human, UniProt P49146 1-381)
T2 sequence (looked up): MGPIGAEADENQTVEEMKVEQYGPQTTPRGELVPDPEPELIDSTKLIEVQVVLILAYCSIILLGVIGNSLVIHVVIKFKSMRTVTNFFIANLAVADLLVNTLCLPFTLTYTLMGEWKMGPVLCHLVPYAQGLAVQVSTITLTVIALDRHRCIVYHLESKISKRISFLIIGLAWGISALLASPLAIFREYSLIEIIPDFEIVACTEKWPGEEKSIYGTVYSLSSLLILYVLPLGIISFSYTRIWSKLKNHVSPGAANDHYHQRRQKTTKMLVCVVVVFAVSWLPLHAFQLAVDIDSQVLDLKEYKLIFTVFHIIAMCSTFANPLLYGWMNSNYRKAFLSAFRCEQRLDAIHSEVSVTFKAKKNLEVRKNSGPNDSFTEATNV


Assays:
Test in all cases: cell-based or functional assay
[1] = target: human GLP-1 receptor (human, UniProt P43220 24-463)
[2] = target: T1, human GIP receptor
[3] = target: T2, human neuropeptide Y2 receptor

Binder	EC50 CreLuc hGLP1R 0.5% hP [1] [nM]	EC50 CreLuc hGLP1R 100% hP [1] [nM]	EC50 CreLuc hGIPR 0.5% hP [2] [nM]	EC50 CreLuc hGIPR 100% hP [2] [nM]	EC50 CreLuc hNPY2R 0.5% hP [3] [nM]	EC50 CreLuc hNPY2R 100% hP [3] [nM]
Y[Aib]EGTFTSDYSI[Aib]LEEQAQ[Aib]AFVEWLIKGGPSSGASLRHYYNWLTRQRY-NH2 (not fully specified (residue 28)) [Compound 100]	0.12	2.21	0.1	0.87	11.2	48
Y[Aib]EGTFTSDYSI[Aib]LEKQAQ[Aib]AFVQWLIKGGPEEGASLRHYYNWLTRQRY-NH2 (not fully specified (residue 28)) [Compound 108]	0.4	6.16	0.3	2.14	14.8	57.4
Y[Aib]EGTFTSDYSI[Aib]LEEQAQ[Aib]AFVEWLIK([εLys-γGlu-γGlu-γGlu-γGlu-C20 diacid])GGPSSGASLRHYYNWLTRQRY-NH2 [Compound 97]	0.15	3.08	0.14	0.95	14.9	70.4
Y[Aib]EGTFTSDYSI[Aib]LEEQAQ[Aib]AFVEWLIKGGPSSGASLRHYYNWLTRQRY-NH2 (not fully specified (residue 28)) [Compound 105]	0.14	1.66	0.2	0.87	10.4	69
Y[Aib]EGTFTSDYSI[Aib]LEEQAQ[Aib]AFVEWLIK([εLys-AEEA-γGlu-γGlu-γGlu-γGlu-γGlu-C20 diacid])GGPSSGASLRHYYNWLTRQRY-NH2 [Compound 110]	0.15	1.53	0.15	1.14	17.5	42.5
Y[Aib]EGTFTSDYSI[Aib]LEKQAQ[Aib]AFVEWLLKGGPSSGASLRHYYNWLTRQRY-NH2 (not fully specified (residue 28)) [Compound 109]	0.28	3.32	0.09	0.64	10.8	52.2
YXEGTFTSDYSIXLEKQAQXAFVEWLIKGGPSSAASLRHYYNWLTRQRY (Aib at 2, 13, 20; K28 side chain: C20DA-gGlu-gGlu-gGlu-gGlu-gGlu-gGlu-eLys; C-terminal NH2) [Compound 98]	0.31	8.22	0.44	3.41	15.1	64.2
YXEGTFTSDYSIXLEAQAQXAFVEWLIKGGPSSGASLRHYYNWLTRQRY (Aib at 2, 13, 20; K28 side chain: C20DA-gGlu-gGlu-gGlu-gGlu-gGlu-gGlu-eLys; C-terminal NH2) [Compound 102]	0.33	3.48	0.98	4.01	24.9	80.7
YXEGTFTSDYSILLEKQAQXAFVEWLIKGGPSSGASLRHYYNWLTRQRY (Aib at 2, 20; K28 side chain: C20DA-gGlu-Glu-gGlu-gGlu-gGlu-gGlu-eLys; C-terminal NH2) [Compound 104]	0.09	2.06	0.06	0.6	13.4	50.7
YXEGTFTSDYSIXLEGQAQXAFVEWLIKGGPSSGASLRHYYNWLTRQRY (Aib at 2, 13, 20; K28 side chain: C20DA-gGlu-gGlu-gGlu-gGlu-gGlu-gGlu-eLys; C-terminal NH2) [Compound 99]	0.41	6.72	0.91	8.52	16.8	85.9
YXEGTFTSDYSIXLEKQAQXAFVEWLIKGGPSSGASLRHYINWLTRQRY (Aib at 2, 13, 20; K28 side chain: C20DA-gGlu-gGlu-gGlu-gGlu-gGlu-gGlu-eLys; C-terminal NH2) [Compound 106]	0.14	3.56	0.26	2.17	20.5	74.2
YXEGTFTSDYSIXLEKQAQXAFVQWLIKGGPSEPASLRHYYNWLTRQRY (Aib at 2, 13, 20; K28 side chain: C20DA-gGlu-gGlu-gGlu-gGlu-gGlu-OEG-OEG; C-terminal NH2) [Compound 111]	0.12	5.32	0.55	1.96	13.4	36.8
YXEGTFTSDYSIXLEKQAQXAFVEWLIKGGPSSGLSLRHYYNWLTRQRY (Aib at 2, 13, 20; K28 side chain: C20DA-gGlu-gGlu-gGlu-gGlu-gGlu-gGlu-eLys; C-terminal NH2) [Compound 107]	0.13	1.88	0.27	0.99	16.7	58.5
YXEGTFTSDYSIXLEKQAQXAFVEWLIKGGPSSGASXRHYYNWLTRQRY (Aib at 2, 13, 20; Tle at 37; K28 side chain: C20DA-gGlu-gGlu-gGlu-gGlu-gGlu-gGlu-eLys; C-terminal NH2) [Compound 103]	0.13	3.19	0.26	1.73	12	50.7
Y[Aib]EGTFTSDYSI[Aib]LEKQAQ[Aib]AFVQWLIKGGPSEPASLRHYYNWLTRQRY-NH2 (not fully specified (residue 28)) [Compound 101]	0.1	2.5	0.15	1.43	12.1	26.5
